This note sets out measurements from patent US20250277023A1 (published 2025).

One experiment has as its target IL15R. The experiment can be described thus: FACS binding; Fig. 29.
Experiment [1] deals with T1, PD-L1 (on CHO-PD-L1 cells) (UniProt Q9NZQ7 19-290). Kind of experiment: FACS binding; Fig. 21.
The target of experiment [2] is T2, TIGIT (on CHO-TIGIT cells) (UniProt Q495A1 22-244).
T2 chain: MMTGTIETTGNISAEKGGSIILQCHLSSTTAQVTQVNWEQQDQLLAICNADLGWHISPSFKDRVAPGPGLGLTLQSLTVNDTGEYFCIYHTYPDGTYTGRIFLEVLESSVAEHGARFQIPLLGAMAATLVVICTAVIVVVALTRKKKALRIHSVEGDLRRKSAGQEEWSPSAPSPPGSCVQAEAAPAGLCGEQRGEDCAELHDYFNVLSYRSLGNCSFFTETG
Kind of experiment: FACS binding; Fig. 17. (In general: A flow cytometer gives signals particle by particle.)

For experiment [3], the target named is T1, PD-L1 (on CHO-PD-L1 cells). Kind of experiment: FACS binding; Fig. 22.

T1 sequence (Q9NZQ7 19-290): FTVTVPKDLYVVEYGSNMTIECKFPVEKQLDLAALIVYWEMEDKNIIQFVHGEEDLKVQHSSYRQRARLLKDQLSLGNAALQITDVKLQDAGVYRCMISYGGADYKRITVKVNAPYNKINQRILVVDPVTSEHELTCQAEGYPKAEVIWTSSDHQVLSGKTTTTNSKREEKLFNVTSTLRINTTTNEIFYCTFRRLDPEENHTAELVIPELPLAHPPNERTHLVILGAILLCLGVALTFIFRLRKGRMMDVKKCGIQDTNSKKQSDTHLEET

B1: R1043 (bispecific antibody)
chain 1: QVQLESEGGLFKPTDTLTLTCTVSGSSLSSSYMSWVRQAPGKGLEWIGIIGSNGNTYYANWAKGRFTISKTSTTVELKITSPTTEDTATYFCARGGYRTSGMDPWGPGTLVTVSSGGGGSGGGGSGGGGSGGGGSGITCPPPMSVEHADIWVKSYSLYSRERYICNSGFKRKAGTSSLTECVLNKATNVAHWTTPSLKCIRDPALVHQRPAPPSTVTTAGVTPQPESLSPSGKEPAASSPSSNNTAATTAAIVPGSQLMPSKSPSTGTTEISSHESSHGTPSQTTAKNWELTASASHQPPGVYPQGHSDTTEPRGPTIKPCPPCKCPAPNLLGGPSVFIFPPKIKDVLMISLSPIVTCVVVDVSEDDPDVQISWFVNNVEVHTAQTQTHREDYNSTLRVVSALPIQHQDWMSGKEFKCKVNNKDLPAPIERTISKPKGSVRAPQVYVLPPPEEEMTKKQVTLWCMVTDFMPEDIYVEWTNNGKTELNYDNTEPVLDSDGSYFMYSDLRVEKKNWVERNSYSCSVVHEGLHNHHTTKSFSRTPGK
chain 2: not shown
heavy: EVQLLESGGGLVQPGGSLRLSCAASGFTFSSYIMMWVRQAPGKGLEWVSSIYPSGGITFYADTVKGRFTISRDNSKNTLYLQMNSLRAEDTAVYYCARIKLGTVTTVDYWGQGTLVTVSSAKTTAPSVYPLAPVCGDTTGSSVTLGCLVKGYFPEPVTLTWNSGSLSSGVHTFPAVLQSDLYTLSSSVTVTSSTWPSQSITCNVAHPASSTKVDKKIEPRGPTIKPCPPCKCPAPNLLGGPSVFIFPPKIKDVLMISLSPIVTCVVVDVSEDDPDVQISWFVNNVEVHTAQTQTHREDYNSTLRVVSALPIQHQDWMSGKEFKCKVNNKDLPAPIERTISKPKGSVRAPQVYVLPPPEEEMTKKQVTLTCRVTDFMPEDIYVEWTNNGKTELNYKNTEPVLKSDGSYFMASKLRVEKKNWVERNSYSCSVVHEGLHNHHTTKSFSRTPGK
light: DIVMTQTPASVEVAVGGTVTIKCQASQSISSYLNWYQQKPGQPPKLLIYDALKLASGVPSRFSGSGSGTEYTLTISGVESADAATYYCQQEHSVGNVDNVFGGGTEVVVKRTDAAPTVSIFPPSSEQLTSGGASVVCFLNNFYPKDINVKWKIDGSERQNGVLNSWTDQDSKDSTYSMSSTLTLTKDEYERHNSYTCEATHKTSTSPIVKSFNRNEC
For the molecule B1, in the experiment with IL15R, the EC50 was determined as 1.07 nM.

B2: R0951: TIGIT_VH_IL15RA/TIGIT_VL_IL15/PD-L1-Fab (bispecific antibody)
chain 1: B1 chain 1
chain 2: not shown
heavy: B1 heavy
light: QSALTQPASVSGSPGQSITISCTGTSSDVGGYNYVSWYQQHPGKAPKLMIYDVSNRPSGVSNRFSGSKSGNTASLTISGLQAEDEADYYCSSYTSSSTRVFGTGTKVTVLRTDAAPTVSIFPPSSEQLTSGGASVVCFLNNFYPKDINVKWKIDGSERQNGVLNSWTDQDSKDSTYSMSSTLTLTKDEYERHNSYTCEATHKTSTSPIVKSFNRNEC
Molecule B2 had an EC50 in experiment [1] of 0.46 nM. This lies in the sub-nanomolar range.

B3: R0952: TIGIT_VH_IL15/TIGIT_VL_IL15RA/PD-L1-Fab (bispecific antibody)
chain 1: not shown
chain 2: DIVMTQTPASVEVAVGGTVTIKCQASQSISSYLNWYQQKPGQPPKLLIYDALKLASGVPSRFSGSGSGTEYTLTISGVESADAATYYCQQEHSVGNVDNVFGGGTEVVVKGGGGSGGGGSGGGGSGGGGSGITCPPPMSVEHADIWVKSYSLYSRERYICNSGFKRKAGTSSLTECVLNKATNVAHWTTPSLKCIRDPALVHQRPAPPSTVTTAGVTPQPESLSPSGKEPAASSPSSNNTAATTAAIVPGSQLMPSKSPSTGTTEISSHESSHGTPSQTTAKNWELTASASHQPPGVYPQGHSDTT
heavy: B1 heavy
light: B2 light
In the case of B3, in experiment [1], the 50% effective concentration (EC50) turned out to be 0.43 nM.

B4: R0774 (Tigit monoclonal antibody) (antibody, V domains shown)
VH: QVQLVQSGAEVKKPGSSVKVSCKASGYSFTSYWMNWVRQAPGQGLEWIGMIRPSDSETRLNQMFKDRVTITVDKSTSTAYMELSSLRSEDTAVYYCAGIHDYGHGAYWGQGTLVTVSS
VL: DIQMTQSPSSLSASVGDRVTITCRASENIYSNLAWYQQKPGKSPKLLVYAASHLPDGVPSRFSGSGSGTDYSLTISSLQPEDFATYYCQHFWGTPRTFGQGTKLEIK
For the molecule B4, in experiment [2], the response was half-maximal at 0.678 nM (EC50).

B5: R1123: TIGIT_VH_IL21R/TIGIT_VL_IL21/PD-L1-Fab (bispecific antibody)
chain 1: not shown
chain 2: not shown
heavy: EVQLQESGPGLVKPSETLSLTCAVYGDSITSGYWNWIRKPPGKGLEYMGYISYTGSTYQNPSLKSRITFSRDTSKNQYYLKLSSVTAADTATYYCARSRAWIRTYFDYWGQGTLVTVSSASTKGPSVFPLAPSSKSTSGGTAALGCLVKDYFPEPVTVSWNSGALTSGVHTFPAVLQSSGLYSLSSVVTVPSSSLGTQTYICNVNHKPSNTKVDKRVEPKSCDKTHTCPPCPAPELLGGPSVFLFPPKPKDTLMISRTPEVTCVVVDVSHEDPEVKFNWYVDGVEVHNAKTKPREEQYNSTYRVVSVLTVLHQDWLNGKEYKCKVSNKALPAPIEKTISKAKGQPREPQVYTLPPSREEMTKNQVSLWCLVKGFYPSDIAVEWESNGQPENNYDTTPPVLDSDGSFFLYSDLTVDKSRWQQGNVFSCSVMHEALHNHYTQKSLSLSPGK
light: EIVLTQSPDFQSVTPKEKVTITCSVSSSISSSNLHWYQQKPDQSPKLLIYGTSNLASGVPSRFSGSGSGTDFTLTINSLEAEDAATYYCQQWSSYPLTFGQGTKLEIKRTVAAPSVFIFPPSDEQLKSGTASVVCLLNNFYPREAKVQWKVDNALQSGNSQESVTEQDSKDSTYSLSSTLTLSKADYEKHKVYACEVTHQGLSSPVTKSFNRGEC
On to B5, for which the EC50 in experiment [2] worked out at 2.89 nM; in experiment [3] it was 5.22 nM.

The term EC50 denotes the concentration that produces a half-maximal response.
